Biological target: FITC-labeled CD4 (UniProt P01730)
Experiment: size exclusion HPLC (Biosil 250); CD4-FITC alone eluted at 2.67 minutes

Substance	retention time of the complex [min]
US4 gp120, purified from CHO cell culture supernatant	2.17
oligomeric gp140 US4 (o-gp140 US4), purified from CHO cell culture supernatant	1.9
